Data from patent US20130263297A1, “METHODS OF TREATING CANCER” (Cedars-Sinai Medical Center, priority 2010, published 2013).
Entries after “also recorded” stand apart in the source; their conditions may differ.

B1: RANKL: trimerized recombinant RANKL protein (rRANKL), receptor activator of NF-KB ligand (protein, UniProt O14788 69-317, looked up)
extracellular domain: YFRAQMDPNRISEDGTHCIYRILRLHENADFQDTTLESQDTKLIPDSCRRIKQAFQGAVQKELQHIVGSQHIRAEKAMVDGSWLDLAKRSKLEAQPFAHLTINATDIPSGSHKVSLSSWYHDRGWAKISNMTFSNGKLIVNQDGFYYLYANICFRHHETSGDLATEYLQLMVYVTKTSIKIPSSHTLMKGGSTKYWSGNSEFHFYSINVGGFFKLRSGEEISIEVSNPSLLDPDQDATYFGAFKVRDID
modifications: extracellular domain trimerized

Assays:
cMet in LNCaP cells = test: cMet expression and phosphorylation (Western blot), LNCaP; type: cell-based, human
cMet in ARCaPE cells = test: cMet expression and phosphorylation (Western blot), ARCaPE; type: cell-based, human
[1] = system: cMet transcriptional activity; test: cMet promoter reporter assay; type: cell-based
LNCaP cells = test: EMT marker / RANKL expression and signaling by RT-PCR and Western blot, LNCaP model; type: cell-based, human
Protocol: Total RNA from cells was isolated using RNeasy Mini Kit (Qiagen, Valencia, Calif.) according to manufacturer's instructions. Complementary DNA (cDNA) was generated from 3 μg of total RNA using SuperScript® III First-Strand Synthesis System (Invitrogen, Carlsbad Calif.), and 1 μl of cDNA was subjected to PCR analyses using the following primers: RANKL F: 5′-TGGATCACAGCACATCAGAGCAG-3′ (SEQ ID NO:3); RANKL R: 5′-TGGGGCTCAATCTATATCTCGAAC-3′ (SEQ ID NO:4); RANK F: 5′-GGGAAAGCACTCACAGCTAATTTG-3′ (SEQ ID NO:5); RANK R: 5′-GCACTGGCTTAAACTGTCATTCTCC-3′ (SEQ ID NO:6); OPG F: 5′-GCT AAC CTC ACC TTC GAG-3′ (SEQ ID NO:7); OPG R: 5′-TGA TTG GAC CTG GTT ACC-3′ (SEQ ID NO:8); E-cadherin F: 5′-GCCAAGCAGCAGTACATTCTACACG-3′ (SEQ ID NO:9); E-cadherin R: 5′-GCTGTTCTTCACGTGCTCAAAATCC-3′ (SEQ ID NO:10); N-cadherin F: 5′-GATGTTGAGGTACAGAATCGT-3′ (SEQ ID NO:11); N-cadherin R: 5′-GGT CGG TCT GGA TGG CGA-3′ (SEQ ID NO:12); Snail F: 5′-CAGACCCACTCAGATGTCAA-3′ (SEQ ID NO:13); Snail R: 5′-CATAGTTAGTCACACCTCGT-3′ (SEQ ID NO:14); Vimentin F: 5′-GGA CTC GGT GGA CTT CTC-3′ (SEQ ID NO:15); Vimentin R: 5′-CGC ATC TCC TCC TCG TAG-3′ (SEQ ID NO:16). The PCR reaction cycles involved an initial denaturation at 94° C. for 10 min, followed by 36 cycles of 94° C., 1 min; 55° C., 30 sec for RANKL and RANK and 48° C., 1 min for OPG; 72° C., 1 min and a final extension at 72° C. for 10 min. For E-cadherin and N-cadherin gene amplification, the PCR reactions ran for a total of 32 cycles and the annealing temperature was 55° C. and 47° C., respectively for 30 sec. For Snail, Vimentin, and GAPDH amplification, the PCR reactions ran for a total of 28 cycles with annealing temperatures at 48° C. for 30 sec. The amplified PCR products were detected and analyzed on 1% agarose gel.
ARCaPE and LNCaP cells were cultured in 6-well plate and at 70% confluency, the cells were serum-starved overnight and then treated with 200 ng/ml of trimerized RANKL in serum-free and phenol-red free RPMI-1640 medium for three days before harvesting the cells. ARCaPE-RANKL and LNCaP-RANKL cells were cultured in 6-well plate and treated with 20 μM of LY294002, a PI3K inhibitor, 20 μM of SB203580, an inhibitor of MAP kinase reactivating kinase, or 2 μM of PS341 (bortezomib), a proteasome inhibitor, at 90% confluency for four hours. Cells were lysed in RIPA buffer containing 1× protease inhibitor cocktail (Thermo Fisher Scientific, Waltham, Mass.) and centrifuged, and the supernatants were collected and quantified using Bradford Protein Assay (Thermo Fisher Scientific, Waltham, Mass.). Cell lysates (20-30 μg) were resolved on a 4-12% Bis-Tris gradient SDS-PAGE (Invitrogen, Carlsbad, Calif.) under reducing conditions, followed by transblotting onto nitrocellulose membrane (BioRad, Hercules, Calif.). The membranes were blocked in 5% non-fat milk in PBST for one hour at room temperature (RT) and incubated with diluted primary antibodies in blocking buffer at 4° C. overnight. The primary antibodies used were RANKL, E-cadherin, vimentin, and OPG (Santa Cruz Biotechnology, Inc., Santa Cruz, Calif.), RANK (Amgen, Thousand Oaks, Calif.), N-cadherin (BD Transduction Laboratories, San Jose, Calif.), phosphor-Akt (Ser 473), Akt, phosphor-p38 (Thr180/Tyr182), p38, phosphor-ERK1/2 (Thr202/Tyr204), ERK, phosphor-SAPK/JNK (Thr183/Tyr185), JNK, phosphor-NF-κB p65 (Ser536), and NF-κB p65 (Cell Signaling Technology, Danvers, Mass.). The membranes were washed with PBST for three times before incubating with peroxidase-conjugated anti-mouse or anti-rabbit secondary antibodies at RT for one hour. After three times washing, the membranes were visualized using ECL Plus reagent (GE Healthcare, Piscataway, N.J.).

[2] = OPG (vs RANKL) or anti-HGF antibody (vs HGF) treatment
[3] = exogeneous RANKL or HGF treatment

Row | Molecule | RANKL- or HGF-induced cMet expression and phosphorylation in LNCaP cells (cMet in LNCaP cells; [2]) | RANKL- or HGF-induced cMet expression and phosphorylation in ARCaPE cells (cMet in ARCaPE cells; [2]) | RANKL up-regulated cMet transcriptional activity ([1]; OPG treatment) | RANKL-induced RANKL expression in LNCaP cells (LNCaP cells; addition of OPG) | RANKL-induced biochemical EMT changes in LNCaP cells (LNCaP cells; addition of OPG) | cMet expression and phosphorylated level of cMet in LNCaP cells (cMet in LNCaP cells; [3]) | cMet expression and phosphorylated level of cMet in ARCaPE cells (cMet in ARCaPE cells; [3]) | cMet transcriptional activity ([1]; RANKL treatment) | RANKL expression at mRNA and protein levels in LNCaP cells (LNCaP cells; RANKL treatment) | nuclear levels of cMyc and Max in LNCaP cells (LNCaP cells; RANKL-treated versus LNCaP cells) | induction of EMT (EMT-specific markers) in LNCaP cells (LNCaP cells; exogenously added RANKL, 200 ng/ml) | phosphorylation of PI3K/Akt, P38 and NFκB proteins in parental LN cells (LNCaP cells; treated with RANKL protein)
1 | osteoprotegerin [OPG] | abrogated | abrogated | attenuated | attenuated | abolished |  |  |  |  |  |  | 
2 | B1 |  |  |  |  |  | significantly increased | significantly increased | up-regulated | induced; also recorded: up-regulated | higher | confirmed; also recorded: decreased epithelial marker E-cadherin and increased mesenchymal marker vimentin, N-cadherin, and Snail | elevated
